T1: SIP2 D1 (Plasmodium falciparum, UniProt C6KSN9 177-235)
T1 sequence: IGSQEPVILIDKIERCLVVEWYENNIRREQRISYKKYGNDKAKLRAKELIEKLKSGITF

B1: GTGCAC_negctrl_site299 (dsDNA)
DNA 1: AGAGAAAGAAGGGAGAAAAAATAAAATAAAATAAAA
DNA 2: TTTTATTTTATTTTATTTTTTCTCCCTTCTTTCTCT
B2: GTGCAC_negctrl_site313 (dsDNA)
DNA 1: GATATAATTATATTATGGTGTTTTTGATAGATATTT
DNA 2: AAATATCTATCAAAAACACCATAATATAATTATATC
B3: GTGCAC_negctrl_site169 (dsDNA)
DNA 1: ATAAGAAGGAACATAAATATATCATAAAAAAAAAAA
DNA 2: TTTTTTTTTTTATGATATATTTATGTTCCTTCTTAT
B4: GTGCAC_negctrl_site477 (dsDNA)
DNA 1: AAAAAAAATTTTCTTCTGTTGTATTTTTTATACGTT
DNA 2: AACGTATAAAAAATACAACAGAAGAAAATTTTTTTT
B5: GTGCAC_negctrl_site363 (dsDNA)
DNA 1: ATTAGAGAATCGTAACCCAAATGAACATACTTAAAT
DNA 2: ATTTAAGTATGTTCATTTGGGTTACGATTCTCTAAT
B6: GTGCAC_negctrl_site693 (dsDNA)
DNA 1: TGGACCAAACGACAAAAAAAAAGCAGAAAACAAAAA
DNA 2: TTTTTGTTTTCTGCTTTTTTTTTGTCGTTTGGTCCA
B7: GTGCAC_negctrl_site315 (dsDNA)
DNA 1: ATATACTATTAACCACATATGTGTGTTAATTTATAT
DNA 2: ATATAAATTAACACACATATGTGGTTAATAGTATAT
B8: GTGCAC_negctrl_site559 (dsDNA)
DNA 1: TTTTTTATTGTGAAACTGATATTATATTTTTTATAA
DNA 2: TTATAAAAAATATAATATCAGTTTCACAATAAAAAA
B9: GTGCAC_negctrl_site547 (dsDNA)
DNA 1: TTTTACAATAATAAGTAGATCTAAATAAAGATTTAA
DNA 2: TTAAATCTTTATTTAGATCTACTTATTATTGTAAAA
B10: GTGCAC_negctrl_site60 (dsDNA)
DNA 1: AACACAATAAAAATTAAAAATGTTAAGTAAATATAA
DNA 2: TTATATTTACTTAACATTTTTAATTTTTATTGTGTT
B11: GTGCAC_negctrl_site537 (dsDNA)
DNA 1: TGGTAACAGCATAGAAAATGGACAAACGAAATATAA
DNA 2: TTATATTTCGTTTGTCCATTTTCTATGCTGTTACCA
B12: GTGCAC_negctrl_site320 (dsDNA)
DNA 1: TTTTCTAAAATATTCATAATAAATCAAAAAAAAAAA
DNA 2: TTTTTTTTTTTGATTTATTATGAATATTTTAGAAAA
B13: GTGCAC_negctrl_site133 (dsDNA)
DNA 1: TCTTTTACAAAAGCTATAACATTCACCACATTATAA
DNA 2: TTATAATGTGGTGAATGTTATAGCTTTTGTAAAAGA
B14: GTGCAC_negctrl_site445 (dsDNA)
DNA 1: TATGGTGTAATTTAGTGTATTATATTATTTTGGTTG
DNA 2: CAACCAAAATAATATAATACACTAAATTACACCATA
B15: GTGCAC_negctrl_site149 (dsDNA)
DNA 1: GCAAAATATTTAAAATAATATATGTGTATATTTTTA
DNA 2: TAAAAATATACACATATATTATTTTAAATATTTTGC
B16: GTGCAC_negctrl_site69 (dsDNA)
DNA 1: AACAGATAATATAAAAAAAAAAAAAAAAATAATTAA
DNA 2: TTAATTATTTTTTTTTTTTTTTTTATATTATCTGTT
B17: GTGCAC_negctrl_site51 (dsDNA)
DNA 1: ATAAAAAATTTAAGTATTTTTTACAAACCTATAAAT
DNA 2: ATTTATAGGTTTGTAAAAAATACTTAAATTTTTTAT
B18: GTGCAC_negctrl_site248 (dsDNA)
DNA 1: ACTACGTGTCAAAAATATTAATTACAAATGAATAAA
DNA 2: TTTATTCATTTGTAATTAATATTTTTGACACGTAGT
B19: GTGCAC_negctrl_site708 (dsDNA)
DNA 1: TTCTATTCAAATGCAAAATTATTAAATAAAAAATAA
DNA 2: TTATTTTTTATTTAATAATTTTGCATTTGAATAGAA
B20: GTGCAC_negctrl_site11 (dsDNA)
DNA 1: TCTTATAACAAAAAAAAATAAAAAATAAAACTATAT
DNA 2: ATATAGTTTTATTTTTTATTTTTTTTTGTTATAAGA
B21: GTGCAC_negctrl_site324 (dsDNA)
DNA 1: ATATGTAAAACTTCAAAAAAATATATTTTATGACGA
DNA 2: TCGTCATAAAATATATTTTTTTGAAGTTTTACATAT
B22: GTGCAC_negctrl_site46 (dsDNA)
DNA 1: TTGTAGGAATTTATTTTGACTGATAATTAATACGTT
DNA 2: AACGTATTAATTATCAGTCAAAATAAATTCCTACAA
B23: GTGCAC_negctrl_site618 (dsDNA)
DNA 1: AAAAAAATTACATATCCATTTTAACATAATAAATAG
DNA 2: CTATTTATTATGTTAAAATGGATATGTAATTTTTTT
B24: GTGCAC_negctrl_site130 (dsDNA)
DNA 1: TTGTATTAATAATTTTTTATATTATAGTTTATAATA
DNA 2: TATTATAAACTATAATATAAAAAATTATTAATACAA
B25: GTGCAC_negctrl_site515 (dsDNA)
DNA 1: GATATGATGAGATTGATATTCATAAGAGGATTAATG
DNA 2: CATTAATCCTCTTATGAATATCAATCTCATCATATC
B26: GTGCAC_negctrl_site444 (dsDNA)
DNA 1: TTTTTCACATCTATAAATCATCTAATCAATATTTTT
DNA 2: AAAAATATTGATTAGATGATTTATAGATGTGAAAAA
B27: GTGCAC_negctrl_site233 (dsDNA)
DNA 1: TAAACCTTAAAATATTTCTCATGTTTAACTTATATT
DNA 2: AATATAAGTTAAACATGAGAAATATTTTAAGGTTTA
B28: GTGCAC_negctrl_site265 (dsDNA)
DNA 1: TATTTTTTTTCTTTATTTATAACGCTCAATATATTC
DNA 2: GAATATATTGAGCGTTATAAATAAAGAAAAAAAATA
B29: GTGCAC_negctrl_site383 (dsDNA)
DNA 1: TTTTGTTTTGTTTTGTTTTGTTTTGTTTTATTTTAT
DNA 2: ATAAAATAAAACAAAACAAAACAAAACAAAACAAAA
B30: GTGCAC_negctrl_site407 (dsDNA)
DNA 1: AATGGAAAAAAAAAAATAAATACAAATAAATACAAA
DNA 2: TTTGTATTTATTTGTATTTATTTTTTTTTTTCCATT
B31: GTGCAC_negctrl_site184 (dsDNA)
DNA 1: TATTCTATATTTCTATTTAGAAAACATCCCAGTGTG
DNA 2: CACACTGGGATGTTTTCTAAATAGAAATATAGAATA
B32: GTGCAC_negctrl_site359 (dsDNA)
DNA 1: ATATAAAAAAGGGAGGTAAATGAATGTGAAACCCAA
DNA 2: TTGGGTTTCACATTCATTTACCTCCCTTTTTTATAT
B33: GTGCAC_negctrl_site288 (dsDNA)
DNA 1: TATTATTCATAATTTATCTTTTAAATTAAATCACAA
DNA 2: TTGTGATTTAATTTAAAAGATAAATTATGAATAATA
B34: GTGCAC_negctrl_site404 (dsDNA)
DNA 1: AAAAAAAAAAAGAAGGAAACATTTGACCAAAAATAT
DNA 2: ATATTTTTGGTCAAATGTTTCCTTCTTTTTTTTTTT
B35: GTGCAC_negctrl_site96 (dsDNA)
DNA 1: ATTTTTTTATAAAATTTTTATATAATTTATTATAAA
DNA 2: TTTATAATAAATTATATAAAAATTTTATAAAAAAAT
B36: GTGCAC_negctrl_site95 (dsDNA)
DNA 1: GCAGTCAAAAAGGAAAATATAAAAAAAGTATATGTG
DNA 2: CACATATACTTTTTTTATATTTTCCTTTTTGACTGC
B37: GTGCAC_negctrl_site250 (dsDNA)
DNA 1: TTTTTTTTTTTATATACTGGAAATATATTTAATTTA
DNA 2: TAAATTAAATATATTTCCAGTATATAAAAAAAAAAA
B38: GTGCAC_negctrl_site686 (dsDNA)
DNA 1: TCTTATATGATATTTATTTATTTATTTATTTATTCA
DNA 2: TGAATAAATAAATAAATAAATAAATATCATATAAGA
B39: GTGCAC_negctrl_site12 (dsDNA)
DNA 1: AATAAAAAAATAAAAAAAAAAAAAAATAAAAAAAAA
DNA 2: TTTTTTTTTATTTTTTTTTTTTTTTATTTTTTTATT
B40: GTGCAC_negctrl_site392 (dsDNA)
DNA 1: TTTATTATTATATTATTTTAATTTTTCTTTAGTACA
DNA 2: TGTACTAAAGAAAAATTAAAATAATATAATAATAAA
B41: GTGCAC_negctrl_site581 (dsDNA)
DNA 1: AAAAAAAAATATATATAAAATTAAAAAATGTAATAT
DNA 2: ATATTACATTTTTTAATTTTATATATATTTTTTTTT
B42: GTGCAC_negctrl_site585 (dsDNA)
DNA 1: TTTTGATAGAAGTGTTCTAGGAATTCAACTGTAATA
DNA 2: TATTACAGTTGAATTCCTAGAACACTTCTATCAAAA
B43: GTGCAC_negctrl_site64 (dsDNA)
DNA 1: TGCAAATTTAACAAAAAAAAAAAAAAAAAAAAAAAA
DNA 2: TTTTTTTTTTTTTTTTTTTTTTTTGTTAAATTTGCA
B44: GTGCAC_negctrl_site663 (dsDNA)
DNA 1: ATAAAAATAAATAAATTATATAAATGTAATATGAAA
DNA 2: TTTCATATTACATTTATATAATTTATTTATTTTTAT

Each binder was assayed against T1, SIP2 D1 (assay: gcPBM; about 25 ug protein; PBS, 1% milk, 0.2 mg/ml BSA, salmon testes DNA, 0.03% Triton X-100). Conditions: tags: N-terminal GST (pGEX-4T-1), kept; label: surface-attached array probe.

| Binder | binding signal |
| --- | --- |
| B1 | 6.83 ln median PBM intensity, better of two orientations |
| B2 | 6.92 ln median PBM intensity, better of two orientations |
| B3 | 6.73 ln median PBM intensity, better of two orientations |
| B4 | 6.77 ln median PBM intensity, better of two orientations |
| B5 | 6.72 ln median PBM intensity, better of two orientations |
| B6 | 6.81 ln median PBM intensity, better of two orientations |
| B7 | 6.87 ln median PBM intensity, better of two orientations |
| B8 | 6.71 ln median PBM intensity, better of two orientations |
| B9 | 6.73 ln median PBM intensity, better of two orientations |
| B10 | 6.71 ln median PBM intensity, better of two orientations |
| B11 | 6.79 ln median PBM intensity, better of two orientations |
| B12 | 6.79 ln median PBM intensity, better of two orientations |
| B13 | 6.79 ln median PBM intensity, better of two orientations |
| B14 | 6.86 ln median PBM intensity, better of two orientations |
| B15 | 6.73 ln median PBM intensity, better of two orientations |
| B16 | 6.71 ln median PBM intensity, better of two orientations |
| B17 | 6.78 ln median PBM intensity, better of two orientations |
| B18 | 6.92 ln median PBM intensity, better of two orientations |
| B19 | 6.9 ln median PBM intensity, better of two orientations |
| B20 | 6.87 ln median PBM intensity, better of two orientations |
| B21 | 6.82 ln median PBM intensity, better of two orientations |
| B22 | 6.8 ln median PBM intensity, better of two orientations |

| Binder | binding signal |
| --- | --- |
| B23 | 6.84 ln median PBM intensity, better of two orientations |
| B24 | 6.82 ln median PBM intensity, better of two orientations |
| B25 | 6.75 ln median PBM intensity, better of two orientations |
| B26 | 6.76 ln median PBM intensity, better of two orientations |
| B27 | 6.73 ln median PBM intensity, better of two orientations |
| B28 | 6.85 ln median PBM intensity, better of two orientations |
| B29 | 6.74 ln median PBM intensity, better of two orientations |
| B30 | 6.81 ln median PBM intensity, better of two orientations |
| B31 | 6.86 ln median PBM intensity, better of two orientations |
| B32 | 6.92 ln median PBM intensity, better of two orientations |
| B33 | 6.81 ln median PBM intensity, better of two orientations |
| B34 | 6.91 ln median PBM intensity, better of two orientations |
| B35 | 6.82 ln median PBM intensity, better of two orientations |
| B36 | 6.87 ln median PBM intensity, better of two orientations |
| B37 | 6.78 ln median PBM intensity, better of two orientations |
| B38 | 6.77 ln median PBM intensity, better of two orientations |
| B39 | 6.76 ln median PBM intensity, better of two orientations |
| B40 | 6.89 ln median PBM intensity, better of two orientations |
| B41 | 6.85 ln median PBM intensity, better of two orientations |
| B42 | 6.81 ln median PBM intensity, better of two orientations |
| B43 | 6.92 ln median PBM intensity, better of two orientations |
| B44 | 6.92 ln median PBM intensity, better of two orientations |

Source: paper PMC11417369, “DNA sequence and chromatin differentiate sequence-specific transcription factor binding in the human malaria parasite Plasmodium falciparum”
